Source: PMC10786891, “Massively parallel profiling of RNA-targeting CRISPR-Cas13d”

T1: EsCas13d, nuclease-dead (Eubacterium siraeum, UniProt B0MS50, R295A;H300A;R849A;H854A)
T1 sequence: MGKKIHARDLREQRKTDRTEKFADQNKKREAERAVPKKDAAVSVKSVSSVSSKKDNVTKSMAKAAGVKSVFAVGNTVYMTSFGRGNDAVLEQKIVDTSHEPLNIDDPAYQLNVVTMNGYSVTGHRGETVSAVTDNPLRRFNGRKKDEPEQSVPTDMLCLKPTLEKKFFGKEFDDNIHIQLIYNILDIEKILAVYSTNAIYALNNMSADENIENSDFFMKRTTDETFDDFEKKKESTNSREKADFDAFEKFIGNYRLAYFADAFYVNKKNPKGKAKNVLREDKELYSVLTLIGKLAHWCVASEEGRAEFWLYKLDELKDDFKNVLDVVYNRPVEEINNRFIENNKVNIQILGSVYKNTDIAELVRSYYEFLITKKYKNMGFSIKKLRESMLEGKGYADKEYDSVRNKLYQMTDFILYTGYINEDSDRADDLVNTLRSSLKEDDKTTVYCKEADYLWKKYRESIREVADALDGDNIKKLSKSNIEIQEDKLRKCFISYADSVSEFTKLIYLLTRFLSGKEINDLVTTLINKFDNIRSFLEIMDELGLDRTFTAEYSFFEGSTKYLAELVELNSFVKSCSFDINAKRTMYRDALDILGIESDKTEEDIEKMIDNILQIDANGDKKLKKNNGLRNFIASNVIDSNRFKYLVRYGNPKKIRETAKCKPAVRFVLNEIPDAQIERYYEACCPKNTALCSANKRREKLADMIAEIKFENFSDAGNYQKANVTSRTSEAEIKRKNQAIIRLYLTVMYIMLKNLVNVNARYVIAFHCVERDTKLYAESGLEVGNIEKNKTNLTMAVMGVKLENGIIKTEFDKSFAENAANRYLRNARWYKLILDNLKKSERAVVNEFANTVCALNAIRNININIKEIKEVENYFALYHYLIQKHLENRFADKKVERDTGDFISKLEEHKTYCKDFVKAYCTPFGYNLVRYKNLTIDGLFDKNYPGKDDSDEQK


The binders below were run against T1, EsCas13d, nuclease-dead (assay: crRNA (strand 1, pre-loaded); Mg2+; 40 mM Tris-HCl pH 7.5, 150 mM NaCl, 6 mM MgCl2, 1 mM DTT, 0.1% Tween-20, 0.2 mg/ml BSA; 25 C; 10 min per concentration, then washed). Settings: tags: His6-TwinStrep-SUMO cleaved; N-terminal SNAP kept (SNAP-Surface 488); label: 3' end held by stalled T7 RNA polymerase.

| Binder | Kd [nM] |
| --- | --- |
| target 2 MT 5'PFS CAG 3'PFS UUC (mixed) RNA 1: CACCCGUGCAAAAUUGCAGGGGUCUAAAACCUUCUCCAAAUUGUUUCAUCCU RNA 2: GGGAAUGGAUCCACAUCUACGAAUUCCAGAGGAUGAAACAAUUUGGAGAAGUUCAGAUCGGAAGAGCACACGU | 19 ± 8 |
| target 2 MT 5'PFS GGG 3'PFS ACC (mixed) RNA 1: CACCCGUGCAAAAUUGCAGGGGUCUAAAACCUUCUCCAAAUUGUUUCAUCCU RNA 2: GGGAAUGGAUCCACAUCUACGAAUUCGGGAGGAUGAAACAAUUUGGAGAAGACCAGAUCGGAAGAGCACACGU | 22 ± 4 |
| target 2 MT 5'PFS UGA 3'PFS AAU (mixed) RNA 1: CACCCGUGCAAAAUUGCAGGGGUCUAAAACCUUCUCCAAAUUGUUUCAUCCU RNA 2: GGGAAUGGAUCCACAUCUACGAAUUCUGAAGGAUGAAACAAUUUGGAGAAGAAUAGAUCGGAAGAGCACACGU | 6.2 ± 0.8 |
| target 2 MT 5'PFS UGA 3'PFS AAG (mixed) RNA 1: CACCCGUGCAAAAUUGCAGGGGUCUAAAACCUUCUCCAAAUUGUUUCAUCCU RNA 2: GGGAAUGGAUCCACAUCUACGAAUUCUGAAGGAUGAAACAAUUUGGAGAAGAAGAGAUCGGAAGAGCACACGU | 7.4 ± 0.9 |
| target 2 MT 5'PFS UGA 3'PFS AAC (mixed) RNA 1: CACCCGUGCAAAAUUGCAGGGGUCUAAAACCUUCUCCAAAUUGUUUCAUCCU RNA 2: GGGAAUGGAUCCACAUCUACGAAUUCUGAAGGAUGAAACAAUUUGGAGAAGAACAGAUCGGAAGAGCACACGU | 10.1 ± 2.4 |
| target 2 MT 5'PFS CAA 3'PFS CUA (mixed) RNA 1: CACCCGUGCAAAAUUGCAGGGGUCUAAAACCUUCUCCAAAUUGUUUCAUCCU RNA 2: GGGAAUGGAUCCACAUCUACGAAUUCCAAAGGAUGAAACAAUUUGGAGAAGCUAAGAUCGGAAGAGCACACGU | ~5 |
| target 2 MT 5'PFS AAA 3'PFS ACC (mixed) RNA 1: CACCCGUGCAAAAUUGCAGGGGUCUAAAACCUUCUCCAAAUUGUUUCAUCCU RNA 2: GGGAAUGGAUCCACAUCUACGAAUUCAAAAGGAUGAAACAAUUUGGAGAAGACCAGAUCGGAAGAGCACACGU | 9.2 ± 2.8 |
| target 2 MT 5'PFS AUA 3'PFS UUC (mixed) RNA 1: CACCCGUGCAAAAUUGCAGGGGUCUAAAACCUUCUCCAAAUUGUUUCAUCCU RNA 2: GGGAAUGGAUCCACAUCUACGAAUUCAUAAGGAUGAAACAAUUUGGAGAAGUUCAGAUCGGAAGAGCACACGU | 13.4 ± 2.4 |
| target 2 MT 5'PFS UGA 3'PFS CCG (mixed) RNA 1: CACCCGUGCAAAAUUGCAGGGGUCUAAAACCUUCUCCAAAUUGUUUCAUCCU RNA 2: GGGAAUGGAUCCACAUCUACGAAUUCUGAAGGAUGAAACAAUUUGGAGAAGCCGAGAUCGGAAGAGCACACGU | 9.2 ± 1 |
| target 2 MT 5'PFS GGC 3'PFS CUG (mixed) RNA 1: CACCCGUGCAAAAUUGCAGGGGUCUAAAACCUUCUCCAAAUUGUUUCAUCCU RNA 2: GGGAAUGGAUCCACAUCUACGAAUUCGGCAGGAUGAAACAAUUUGGAGAAGCUGAGAUCGGAAGAGCACACGU | 12.9 ± 1.3 |
| target 2 MT 5'PFS UAG 3'PFS CAC (mixed) RNA 1: CACCCGUGCAAAAUUGCAGGGGUCUAAAACCUUCUCCAAAUUGUUUCAUCCU RNA 2: GGGAAUGGAUCCACAUCUACGAAUUCUAGAGGAUGAAACAAUUUGGAGAAGCACAGAUCGGAAGAGCACACGU | 2.69 ± 0.34 |
| target 2 MT 5'PFS UCA 3'PFS UAU (mixed) RNA 1: CACCCGUGCAAAAUUGCAGGGGUCUAAAACCUUCUCCAAAUUGUUUCAUCCU RNA 2: GGGAAUGGAUCCACAUCUACGAAUUCUCAAGGAUGAAACAAUUUGGAGAAGUAUAGAUCGGAAGAGCACACGU | 5.1 ± 0.7 |
| target 2 MT 5'PFS CUC 3'PFS UGC (mixed) RNA 1: CACCCGUGCAAAAUUGCAGGGGUCUAAAACCUUCUCCAAAUUGUUUCAUCCU RNA 2: GGGAAUGGAUCCACAUCUACGAAUUCCUCAGGAUGAAACAAUUUGGAGAAGUGCAGAUCGGAAGAGCACACGU | 1.98 ± 0.26 |
| target 2 MT 5'PFS AAA 3'PFS ACA (mixed) RNA 1: CACCCGUGCAAAAUUGCAGGGGUCUAAAACCUUCUCCAAAUUGUUUCAUCCU RNA 2: GGGAAUGGAUCCACAUCUACGAAUUCAAAAGGAUGAAACAAUUUGGAGAAGACAAGAUCGGAAGAGCACACGU | 7.8 ± 2.2 |
| target 2 MT 5'PFS UCA 3'PFS UAG (mixed) RNA 1: CACCCGUGCAAAAUUGCAGGGGUCUAAAACCUUCUCCAAAUUGUUUCAUCCU RNA 2: GGGAAUGGAUCCACAUCUACGAAUUCUCAAGGAUGAAACAAUUUGGAGAAGUAGAGAUCGGAAGAGCACACGU | 3.9 ± 0.5 |
| target 2 MT 5'PFS GGC 3'PFS CUU (mixed) RNA 1: CACCCGUGCAAAAUUGCAGGGGUCUAAAACCUUCUCCAAAUUGUUUCAUCCU RNA 2: GGGAAUGGAUCCACAUCUACGAAUUCGGCAGGAUGAAACAAUUUGGAGAAGCUUAGAUCGGAAGAGCACACGU | 17.6 ± 1.8 |
| target 2 MT 5'PFS UGA 3'PFS AAA (mixed) RNA 1: CACCCGUGCAAAAUUGCAGGGGUCUAAAACCUUCUCCAAAUUGUUUCAUCCU RNA 2: GGGAAUGGAUCCACAUCUACGAAUUCUGAAGGAUGAAACAAUUUGGAGAAGAAAAGAUCGGAAGAGCACACGU | 9 ± 2.9 |
| target 2 MT 5'PFS UUA 3'PFS CAU (mixed) RNA 1: CACCCGUGCAAAAUUGCAGGGGUCUAAAACCUUCUCCAAAUUGUUUCAUCCU RNA 2: GGGAAUGGAUCCACAUCUACGAAUUCUUAAGGAUGAAACAAUUUGGAGAAGCAUAGAUCGGAAGAGCACACGU | 14.3 ± 1.3 |
| target 2 MT 5'PFS AUA 3'PFS UUA (mixed) RNA 1: CACCCGUGCAAAAUUGCAGGGGUCUAAAACCUUCUCCAAAUUGUUUCAUCCU RNA 2: GGGAAUGGAUCCACAUCUACGAAUUCAUAAGGAUGAAACAAUUUGGAGAAGUUAAGAUCGGAAGAGCACACGU | 10.7 ± 1.7 |
| target 2 MT 5'PFS CUC 3'PFS UGA (mixed) RNA 1: CACCCGUGCAAAAUUGCAGGGGUCUAAAACCUUCUCCAAAUUGUUUCAUCCU RNA 2: GGGAAUGGAUCCACAUCUACGAAUUCCUCAGGAUGAAACAAUUUGGAGAAGUGAAGAUCGGAAGAGCACACGU | 1.66 ± 0.33 |
| target 2 MT 5'PFS GGC 3'PFS CUA (mixed) RNA 1: CACCCGUGCAAAAUUGCAGGGGUCUAAAACCUUCUCCAAAUUGUUUCAUCCU RNA 2: GGGAAUGGAUCCACAUCUACGAAUUCGGCAGGAUGAAACAAUUUGGAGAAGCUAAGAUCGGAAGAGCACACGU | 12 ± 1.9 |
| target 2 MT 5'PFS GGC 3'PFS CUC (mixed) RNA 1: CACCCGUGCAAAAUUGCAGGGGUCUAAAACCUUCUCCAAAUUGUUUCAUCCU RNA 2: GGGAAUGGAUCCACAUCUACGAAUUCGGCAGGAUGAAACAAUUUGGAGAAGCUCAGAUCGGAAGAGCACACGU | 13.2 ± 1.2 |
| target 2 MT 5'PFS UCA 3'PFS UAC (mixed) RNA 1: CACCCGUGCAAAAUUGCAGGGGUCUAAAACCUUCUCCAAAUUGUUUCAUCCU RNA 2: GGGAAUGGAUCCACAUCUACGAAUUCUCAAGGAUGAAACAAUUUGGAGAAGUACAGAUCGGAAGAGCACACGU | 5.7 ± 0.9 |
| target 2 MT 5'PFS GGG 3'PFS ACA (mixed) RNA 1: CACCCGUGCAAAAUUGCAGGGGUCUAAAACCUUCUCCAAAUUGUUUCAUCCU RNA 2: GGGAAUGGAUCCACAUCUACGAAUUCGGGAGGAUGAAACAAUUUGGAGAAGACAAGAUCGGAAGAGCACACGU | 9.4 ± 0.8 |
| target 2 MT 5'PFS CAA 3'PFS CUC (mixed) RNA 1: CACCCGUGCAAAAUUGCAGGGGUCUAAAACCUUCUCCAAAUUGUUUCAUCCU RNA 2: GGGAAUGGAUCCACAUCUACGAAUUCCAAAGGAUGAAACAAUUUGGAGAAGCUCAGAUCGGAAGAGCACACGU | 5.3 ± 2.1 |
| target 2 MT 5'PFS UGA 3'PFS CCA (mixed) RNA 1: CACCCGUGCAAAAUUGCAGGGGUCUAAAACCUUCUCCAAAUUGUUUCAUCCU RNA 2: GGGAAUGGAUCCACAUCUACGAAUUCUGAAGGAUGAAACAAUUUGGAGAAGCCAAGAUCGGAAGAGCACACGU | 15.6 ± 2.8 |
| target 1 A14U,A16C (mixed) RNA 1: CACCCGUGCAAAAAUGCAGGGGUCUAAAACUGAGCGGAUAACCUCUCUAUGG RNA 2: GGGAAUGGAUCCACAUCUACGAAUUCGUACCAUAGCGUGGUUAUCCGCUCACCGAGAUCGGAAGAGCACACGU | 100 ± 40 |
| target 1 insU 3' of 12,insU 3' of 1 (mixed) RNA 1: CACCCGUGCAAAAAUGCAGGGGUCUAAAACUGAGCGGAUAACCUCUCUAUGG RNA 2: GGGAAUGGAUCCACAUCUACGAAUUCGUACCAUAGAGAGGUUUAUCCGCUCAUCCGAGAUCGGAAGAGCACACGU | 8.23 ± 0.33 |
